Target: Insulin from bovine pancreas, P01317
Sequence (P01317 85-105, chain 1 of 2): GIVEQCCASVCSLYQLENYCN
Sequence (P01317 25-54, chain 2 of 2): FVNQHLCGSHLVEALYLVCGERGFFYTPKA

B1: Protein disulfide isomerase from Thermoascus crustaceus (SEQ ID NO: 1) (protein)
chain: ADAESDVRSLKKDTFDDFIKEHDLVLAEFFAPWCGHCQALAPEYEAAASELKEKNIPLAKVDCTEEADLCKEHGVEGYPTLKVFRGLDSVKPYPGARKSAAIVSYMVKQSLPAVSTVTKENLEEFKTMDKVVIIGYIAPDDKTSNETFTAFADSKRDDYLFAATNDAALAKAEGVKQPSIVLYKDFDEKKDVFDGKFDQETMLSWVKTASTPLVGEIGPETYAGYMSAGIPLAFIFAETPEERQKLAADFKPIAEKHRGAINIVTIDAKAFGAYAGNLNLDPQKFPCFAIHDTVKNAKFPYDQSKEVNAKDIGQFVQEVLDGKVEPSIKSEPIPETQEGSVTVVVAHSYRELVIDNDKDVLLEFYAPWCGHCKALAPKYEELGRLYAENPDLASKVTVAKIDATANDVPDEIQGFPTIKLFPAGAKDSPVDYAGSRTVEDLANFIKENGKHKVDALSAATAKPEQGGDVTSTPSISSETTAETAAPTTDGSEHDEL
Insulin reduction assay with DTT, MALDI MS (worded result): in the presence of the PDI, a significant amount of the cystines are reduced resulting in separation of the insulin into the A peptide and B peptide | Insulin reduction assay with sulfite, MALDI MS (worded result): in the presence of the PDI, a significant amount of the cystines are reduced resulting in separation of the insulin into the A peptide and B peptide | Ratio (A chain): mass peak area of A peptide chain to intact insulin, MALDI MS; 2.5 µg/mL PDI, 0 mM DTT: 0.006 | Ratio (A chain): mass peak area of A peptide chain to intact insulin, MALDI MS; 2.5 µg/mL PDI, 0 mM sulfite: 0.009 | Ratio (A chain): mass peak area of A peptide chain to intact insulin, MALDI MS; 2.5 µg/mL PDI, 2 mM DTT: 0.035 | Ratio (A chain): mass peak area of A peptide chain to intact insulin, MALDI MS; 2.5 µg/mL PDI, 2.9 mM sulfite: 0.027 | Ratio (A chain): mass peak area of A peptide chain to intact insulin, MALDI MS; 5 µg/mL PDI, 0 mM DTT: 0.005 | Ratio (A chain): mass peak area of A peptide chain to intact insulin, MALDI MS; 5 µg/mL PDI, 0 mM sulfite: 0.007 | Ratio (A chain): mass peak area of A peptide chain to intact insulin, MALDI MS; 5 µg/mL PDI, 2 mM DTT: 0.07 | Ratio (A chain): mass peak area of A peptide chain to intact insulin, MALDI MS; 5 µg/mL PDI, 2.9 mM sulfite: 0.05 | Ratio (A chain): mass peak area of A peptide chain to intact insulin, MALDI MS; 10 µg/mL PDI, 0 mM DTT: 0.003 | Ratio (A chain): mass peak area of A peptide chain to intact insulin, MALDI MS; 10 µg/mL PDI, 0 mM sulfite: 0.008 | Ratio (A chain): mass peak area of A peptide chain to intact insulin, MALDI MS; 10 µg/mL PDI, 2 mM DTT: 0.172 | Ratio (A chain): mass peak area of A peptide chain to intact insulin, MALDI MS; 10 µg/mL PDI, 2.9 mM sulfite: 0.104 | Ratio (B chain): mass peak area of B peptide chain to intact insulin, MALDI MS; 2.5 µg/mL PDI, 0 mM DTT: 0.01 | Ratio (B chain): mass peak area of B peptide chain to intact insulin, MALDI MS; 2.5 µg/mL PDI, 0 mM sulfite: 0.019 | Ratio (B chain): mass peak area of B peptide chain to intact insulin, MALDI MS; 2.5 µg/mL PDI, 2 mM DTT: 0.109 | Ratio (B chain): mass peak area of B peptide chain to intact insulin, MALDI MS; 2.5 µg/mL PDI, 2.9 mM sulfite: 0.055 | Ratio (B chain): mass peak area of B peptide chain to intact insulin, MALDI MS; 5 µg/mL PDI, 0 mM DTT: 0.009 | Ratio (B chain): mass peak area of B peptide chain to intact insulin, MALDI MS; 5 µg/mL PDI, 0 mM sulfite: 0.018 | Ratio (B chain): mass peak area of B peptide chain to intact insulin, MALDI MS; 5 µg/mL PDI, 2 mM DTT: 0.185 | Ratio (B chain): mass peak area of B peptide chain to intact insulin, MALDI MS; 5 µg/mL PDI, 2.9 mM sulfite: 0.083 | Ratio (B chain): mass peak area of B peptide chain to intact insulin, MALDI MS; 10 µg/mL PDI, 0 mM DTT: 0.007 | Ratio (B chain): mass peak area of B peptide chain to intact insulin, MALDI MS; 10 µg/mL PDI, 0 mM sulfite: 0.017 | Ratio (B chain): mass peak area of B peptide chain to intact insulin, MALDI MS; 10 µg/mL PDI, 2 mM DTT: 0.335 | Ratio (B chain): mass peak area of B peptide chain to intact insulin, MALDI MS; 10 µg/mL PDI, 2.9 mM sulfite: 0.17

Reference: US20240307885
